Where two headings read alike, the source gives them in different places.
Assays:
[1] = target: recombinant human BCMA-his fusion protein (ACRO Biosystem, Cat. No. BCA-H522y) (human) (UniProt Q02223); test: competitive ELISA, coated huBCMA-his, competitor 83A10-biotin
[2] = target: recombinant human BCMA-his fusion protein (ACRO Biosystem, Cat. No. BCA-H522y) (human) (UniProt Q02223); test: as above; remark: listed apart in the source
[3] = target: human BCMA on cells (NCI-H929, U266B1, HEK293 huBCMA) (human) (UniProt Q02223); test: flow cytometry on NCI-H929 cells
human BCMA on cells (NCI-H929, U266B1, HEK293 huBCMA) (human), sequence (Q02223 whole entry, the tested form may be a part): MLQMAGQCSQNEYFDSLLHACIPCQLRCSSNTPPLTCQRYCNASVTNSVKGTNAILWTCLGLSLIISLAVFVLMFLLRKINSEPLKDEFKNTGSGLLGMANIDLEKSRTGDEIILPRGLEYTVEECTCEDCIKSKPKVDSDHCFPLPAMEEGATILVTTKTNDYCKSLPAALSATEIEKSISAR

[4] = target: recombinant human BCMA-his fusion protein (ACRO Biosystem, Cat. No. BCA-H522y) (human) (UniProt Q02223); test: ELISA, coated antigen

positive control antibody 83A10, sequence (VH): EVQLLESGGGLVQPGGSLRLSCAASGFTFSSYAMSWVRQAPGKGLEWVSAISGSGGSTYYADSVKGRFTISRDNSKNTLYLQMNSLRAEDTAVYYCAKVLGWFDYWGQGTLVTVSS
positive control antibody 83A10, sequence (VL): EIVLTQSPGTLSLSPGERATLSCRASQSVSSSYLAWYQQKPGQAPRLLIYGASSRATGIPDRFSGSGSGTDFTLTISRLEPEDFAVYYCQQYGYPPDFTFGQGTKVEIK
recombinant human BCMA-his fusion protein (ACRO Biosystem, Cat. No. BCA-H522y) (human), sequence (Q02223 1-54): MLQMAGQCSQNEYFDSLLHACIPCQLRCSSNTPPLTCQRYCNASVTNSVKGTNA

IC50 [1]: 9.8 µg/mL
IC50 [2]: 15 µg/mL
EC50 [3]: 8.69 nM
EC50 [4]: 0.0253 nM
Substance: positive control antibody 83A10
